Assay results as given in patent US11584938B2, “Plant EPSPS mutant containing L195P and S247G mutations and encoding gene and use thereof” (GEVOTO LLC, priority 2017, dated 2023).

B1: G0: wild-type soybean EPSPS, amino acid sequence SEQ ID NO: 2; control (protein)
chain: MAAAEKPSTAPEIVLEPIKDISGTITLPGSKSLSNRILLLAALSEGTTVVDNLLYSEDIHYMLGALRTLGLRVEDDQTTKQAIVEGCGGLFPTIKESKDEINLFLGNAGTAMRPLTAAVVAAGGNASYVLDGVPRMRERPIGDLVAGLKQLGADVDCFLGTNCPPVRVNGKGGLPGGKVKLSGSVSSQYLTALLMAAPLALGDVEIEIVDKLISVPYVEMTLKLMERFGVSVEHSGDWDKFLVHGGQKYKSPGNAFVEGDASSASYFLAGAAVTGGTITVNGCGTSSLQGDVKFAEVLEKMGAKVTWSENSVTVTGPPQDSSGQKVLQGIDVNMNKMPDVAMTLAVVALFANGQTTIRDVASWRVKETERMIAICTELRKLGATVEEGPDYCVITPPEKLNVTAIDTYDDHRMAMAFSLAACGDVPVTIKDPGCTRKTFPDYFEVLERFTRH
modifications: Glycine max
notes: control
B2: G1: soybean EPSPS mutant, SEQ ID NO: 4, mutation L212(195)P (protein)
chain: MAAAEKPSTAPEIVLEPIKDISGTITLPGSKSLSNRILLLAALSEGTTVVDNLLYSEDIHYMLGALRTLGLRVEDDQTTKQAIVEGCGGLFPTIKESKDEINLFLGNAGTAMRPLTAAVVAAGGNASYVLDGVPRMRERPIGDLVAGLKQLGADVDCFLGTNCPPVRVNGKGGLPGGKVKLSGSVSSQYLTALLMAAPLALGDVEIEIVDKPISVPYVEMTLKLMERFGVSVEHSGDWDKFLVHGGQKYKSPGNAFVEGDASSASYFLAGAAVTGGTITVNGCGTSSLQGDVKFAEVLEKMGAKVTWSENSVTVTGPPQDSSGQKVLQGIDVNMNKMPDVAMTLAVVALFANGQTTIRDVASWRVKETERMIAICTELRKLGATVEEGPDYCVITPPEKLNVTAIDTYDDHRMAMAFSLAACGDVPVTIKDPGCTRKTFPDYFEVLERFTRH
B3: G2: soybean EPSPS mutant, SEQ ID NO: 6, merely containing the mutation P114(101)S; control (protein)
chain: MAAAEKPSTAPEIVLEPIKDISGTITLPGSKSLSNRILLLAALSEGTTVVDNLLYSEDIHYMLGALRTLGLRVEDDQTTKQAIVEGCGGLFPTIKESKDEINLFLGNAGTAMRSLTAAVVAAGGNASYVLDGVPRMRERPIGDLVAGLKQLGADVDCFLGTNCPPVRVNGKGGLPGGKVKLSGSVSSQYLTALLMAAPLALGDVEIEIVDKLISVPYVEMTLKLMERFGVSVEHSGDWDKFLVHGGQKYKSPGNAFVEGDASSASYFLAGAAVTGGTITVNGCGTSSLQGDVKFAEVLEKMGAKVTWSENSVTVTGPPQDSSGQKVLQGIDVNMNKMPDVAMTLAVVALFANGQTTIRDVASWRVKETERMIAICTELRKLGATVEEGPDYCVITPPEKLNVTAIDTYDDHRMAMAFSLAACGDVPVTIKDPGCTRKTFPDYFEVLERFTRH

Tested on: transgenic rice plants
Test: glyphosate resistance of the EPSPS mutant in transgenic rice plants sprayed with Roundup 41% ammonium glyphosate
Type: in vivo, rice (Nipponbare)
Description: A method for detecting the glyphosate resistance of G1 (SEQ ID NO: 4) provided in Example 1, G3 (SEQ ID NO: 8) provided in Example 2, G4 (SEQ ID NO: 10) provided in Example 3, the soybean EPSPS mutant G5 (SEQ ID NO: 12) provided in Example 4, T1 (SEQ ID NO: 16) provided in Example 5, T3 (SEQ ID NO: 20) provided in Example 6, T4 (SEQ ID NO: 22) provided in Example 7, T5 (SEQ ID NO: 24) provided in Example 8, the wheat EPSPS mutant T6 (SEQ ID NO: 26) provided in Example 9, R1 (SEQ ID NO: 30) provided in Example 10, R3 (SEQ ID NO: 34) provided in Example 11, R4 (SEQ ID NO: 36) provided in Example 12, R5 (SEQ ID NO: 38) provided in Example 13, and the rice EPSPS mutant R6 (SEQ ID NO: 40) provided in Example 14 in the transgenic rice is as follows:
The plasmids (containing the EPSPS mutation gene) of the monoclonal resistant bacteria of pADV5-EPSPS in Examples 1-7 were extracted by a conventional method, followed by double enzyme digestion by Pac1 and BstEII, the small fragments were collected, and then the small fragments were ligated by using T4 DNA ligase, to the pGVP1 vectors that had undergone the same double enzyme digestion, to obtain a pGVP1-EPSPS vector having a structure as shown in FIG. 23.
EHA105 (Agrobacterium tumefaciens) competent cells were transformed by the pGVP1-EPSPS vector, and single colonies were picked up to perform bacterial colony PCR detection to identify positive strains; then the positive strains were inoculated into 1 mL of YEP culture medium containing 50 μg·mL^−1 kanamycin and 50 μg·mL^−1 rifampin to propagate, and then preserved at −80° C., or used for subsequent experiment.
400 μl of bacterium containing the target gene vector preserved at −80° C. was added to a culture dish of solid culture media containing YEP+50 μg/mL rifampin+50 μg/mL kanamycin, and cultured in the dark at 28° C. for 24 hours, then this bacterium was added to an infection culture medium, and this bacterial solution was adjusted to OD=0.2 as an infection liquid.
Sterilization and pre-culturing: mature rice (Nipponbare) seeds were manually shelled, and full seeds without bacterial plaque were selected, and sterilized according to following steps: putting the seeds into a 50 ml sterile centrifuge tube, adding 70% alcohol for disinfection for 30 seconds, pouring out the alcohol, and cleaning the seeds once with sterile water; adding 10-20 ml of 2.6% sodium hypochlorite solution for soaking and sterilizing for 20 minutes, pouring out the sodium hypochlorite solution, and soaking and cleaning the seeds with sterile water for 6-7 times, 3 minutes each time.
Induction and subculturing: the seeds were put on sterile filter paper for drying, and mature embryos were put in an induction culture medium with 12 embryos in each dish; the culture dishes were sealed with a sealing film after the operation was finished, the mature embryos were cultured in the dark at 30° C. for 21-28 days, calluses were transferred into a fresh culture medium, and continuously cultured for about 7-14 days, and spherical calluses with a size of 1-2 mm were taken as infection receptors.
the calluses were inoculated into a centrifuge tube or a culture cup, the prepared Agrobacterium tumefaciens suspension liquid was added for infection for 10 minutes, wherein the calluses were shaken several times; the bacterial solution was poured out, the calluses were taken out, and placed on sterile filter paper to suck out the surface bacterial solution (about 30 minutes); and the calluses were put on sterile filter paper in a culture dish, and cultured in the dark at 25° C. for 2-3 days.
Recovery culturing: the calluses having undergone co-culturing were inoculated in a recovery culture medium, and cultured in the dark at 30° C. for 5-7 days. First round of screening: the calluses were transferred to screening culture media 1 (S1) and cultured in the dark at 30° C. for 14 days. […]

[1] = 1× dosage 1060 g/hectare glyphosate sprayed, recorded on 10th day
[2] = 2× dosage 2120 g/hectare sprayed to plants surviving 1×, recorded 10 days later
[3] = 5× dosage 5300 g/hectare sprayed to plants surviving 2×, recorded 10 days later
[4] = 20× dosage 21200 g/hectare sprayed to plants surviving 5×, recorded 10 days later

Molecule | %++&+++ (percentage of plant having medium and high glyphosate resistance to the total number of plants observed) [1] | number of plants denoted by + (low glyphosate resistance) [1] | number of plants denoted by ++ (medium glyphosate resistance) [1] | number of plants denoted by +++ (high glyphosate resistance) [1] | number of plants denoted by − (no glyphosate resistance) [1] | glyphosate resistance / survival of the rice transformed by the EPSPS, in words (1× glyphosate dosage) | %++&+++ (percentage of plant having medium and high glyphosate resistance to the total number of plants observed) [2] | number of plants denoted by + (low glyphosate resistance) [2] | number of plants denoted by ++ (medium glyphosate resistance) [2] | number of plants denoted by +++ (high glyphosate resistance) [2] | number of plants denoted by − (no glyphosate resistance) [2] | &++&+++ (percentage of plant having medium and high glyphosate resistance to the total number of plants observed) [3] | number of plants denoted by + (low glyphosate resistance) [3] | number of plants denoted by ++ (medium glyphosate resistance) [3] | number of plants denoted by +++ (high glyphosate resistance) [3] | number of plants denoted by − (no glyphosate resistance) [3] | &++&+++ (percentage of plant having medium and high glyphosate resistance to the total number of plants observed) [4] | number of plants denoted by + (low glyphosate resistance) [4] | number of plants denoted by ++ (medium glyphosate resistance) [4] | number of plants denoted by +++ (high glyphosate resistance) [4] | other results
B1 | 0.0% | 0 | 0 | 0 | 36 | had no resistance and died | 0.0% | 0 | 0 | 0 | 36 | 0.0% | 0 | 0 | 0 | 36 | 0.0% | 0 | 0 | 0 | number of plants denoted by − (no glyphosate resistance) [4]: 36
B2 | 16.7% | 20 | 4 | 2 | 10 | obviously superior to that of the rice seedlings transformed by G0 | 0.0% | 19 | 0 | 0 | 17 | 0.0% | 5 | 0 | 0 | 31 | 0.0% | 0 | 0 | 0 | number of plants denoted by − (no glyphosate resistance) [4]: 36
B3 | 47.1% | 6 | 5 | 3 | 3 | had certain resistance to glyphosate | 0.0% | 0 | 0 | 0 | 17 | 0.0% | 0 | 0 | 0 | 17 | 0.0% | 0 | 0 | 0 | glyphosate resistance / survival of the rice transformed by the EPSPS, in words (2× glyphosate dosage): all rice seedlings containing the soybean EPSPS mutant G2 died; glyphosate resistance / survival of the rice transformed by the EPSPS, in words (5× glyphosate dosage): all rice seedlings containing the soybean EPSPS mutant G2 died; number of plants denoted by − (no glyphosate resistance) [4]: 17; glyphosate resistance / survival of the rice transformed by the EPSPS, in words (20× glyphosate dosage): all rice seedlings containing the soybean EPSPS mutant G2 died
